The target in assay [1] is T1, α-thrombin (UniProt P00734 328-363; P00734 364-622). Kind of assay: Biacore assay. The method, then:
(§1) The binding abilities of GPIbα-290/2V-Ig and GPIbα-290-2V/FFF-Ig to vWF and a-thrombin were evaluated in vitro using a Biacore assay.
(SPR reads the build-up and loss of mass on a sensor chip optically.)

The target of assay [2] is T2, vWF A1 domain (UniProt P04275 1261-1468, limits assumed).
T2 construct: domain: A1; also called vWF A1 fragment
Kind of assay: Biacore assay. The method, then: as §1

For assay [3], the target named is T3, intact von Willebrand factor (UniProt P04275 764-2813, limits assumed).
T3 construct: also called vWF; intact vWF
Kind of assay: binding constant; method not stated in Example 3.

For assay [4], the target named is T2, vWF A1 domain. Kind of assay: binding constant; method not stated in Example 3.
Assay [5] addresses T1, α-thrombin. Kind of assay: SPR (BiaCore).
The target in assay [6] is T3, intact von Willebrand factor. Kind of assay: SPR (BiaCore); fully sulfated isoform.
Assay [7] has the same target. Kind of assay: SPR (BiaCore); 6 sulfated (fully sulfated).
For assay [8] the target is unchanged. Kind of assay: SPR (BiaCore); 0 sulfated (unsulfated).
For assay [9] the target is unchanged. Kind of assay: SPR (BiaCore); non-sulfated isoform.
Assay [10] addresses T2, vWF A1 domain. Kind of assay: Biacore assay. This is another data set of the same source.

Numbering of substitutions follows the chain as printed. Names may count otherwise.

One may read the Kd as the constant that tells how readily two partners part at equilibrium.

B1: GPIbα-IgG1Fc fusion protein with a wild-type human GPIbα sequence (Fc fusion)
chain: HPICEVSKVASHLEVNCDKRNLTALPPDLPKDTTILHLSENLLYTFSLATLMPYTRLTQLNLDRCELTKLQVDGTLPVLGTLDLSHNQLQSLPLLGQTLPALTVLDVSFNRLTSLPLGALRGLGELQELYLKGNELKTLPPGLLTPTPKLEKLSLANNNLTELPAGLLNGLENLDTLLLQENSLYTIPKGFFGSHLLPFAFLHGNPWLCNCEILYFRRWLQDNAENVYVWKQGVDVKAMTSNVASVQCDNSDKFPVYKYPGKGCPTLGDEGDTDLYDYYPEEDTEGDKVR
modifications: tyrosines 276, 278, 279 can be sulfated; sulfation state of the tested material not stated
notes: Made in CHO cells; dimerized forms were isolated; also called WT; GPIb-Ig WT; not shown: IgG1 Fc
Molecule B1 registered a Kd in assay [1] of 760 nM.

B2: GPIb-290/2V-Ig (N-terminal 290 amino acids of GPIbα with G233V M239V fused to a human IgG1 Fc domain) (Fc fusion)
chain: B1 chain with G233V, M239V
modifications: sulfated tyrosines at 276, 278, 279 (extent not stated)
notes: also called GPIb2V-Ig; GP Ib-Ig2V; not shown: human IgG1 Fc domain
In the case of B2, the equilibrium dissociation constant (Kd) in assay [1] stood at 630 nM; in [2], 5 nM. Besides, the Ka amounted to 5.6e+08 M⁻¹ in assay [3] and 1.9e+08 M⁻¹ in [4].

B3: GPIbα-IgG1Fc fusion protein 1V (M239V), fully sulfated isoform (Fc fusion)
chain: B1 chain with M239V
modifications: sulfotyrosine at 276, 278 and 279 (fully sulfated: sulfation state 6 per dimer)
notes: also called 1V 6 sulfated; GP Ibα-Ig239V fully sulfated isoform; not shown: IgG1 Fc
Regarding B3, in assay [5], the “fold higher binding affinity than the unsulfated isoform” value is roughly 80 fold. In addition, the Kd in assay [6] is 119 nM; in [7], 113 to 521 nM.

B4: GPIbα-IgG1Fc fusion protein 2V (G233V M239V), non-sulfated isoform (Fc fusion)
chain: B1 chain with G233V, M239V
modifications: tyrosines 276, 278, 279 not sulfated (sulfation state 0)
notes: also called 2V 0 sulfated; GP Ib-Ig2V unsulfated isoform; not shown: IgG1 Fc
For the molecule B4, the results for the Kd in [8] and in assay [9] were 3.4 to 15 nM and 12 nM, respectively.

B5: GPIbα-IgG1Fc fusion protein 1V (M239V), non-sulfated isoform (Fc fusion)
chain: B1 chain with M239V
modifications: tyrosines 276, 278, 279 not sulfated (sulfation state 0)
notes: also called 1V 0 sulfated; GP Ibα-Ig239V unsulfated isoform; not shown: IgG1 Fc
Take B5: the Kd was 113 to 521 nM in assay [8] and 284 nM in assay [9].

B6: GPIb-290/2V/FFF-Ig (GPIb-290/2V-Ig with Tyr-276, 278, 279 changed to phenylalanine) (Fc fusion)
chain: B1 chain with G233V, M239V, Y276F, Y278F, Y279F
notes: Non-sulfated chimera; also called GPIbα-290/2V/FFF-Ig; GPIbα-290-2V/FFF-Ig; not shown: human IgG1 Fc domain
As for B6, the results for the Kd in [1] and in [2] were 35800 nM and 15.4 nM, respectively. The Ka in [3] stood at 2.4e+08 M⁻¹; in [4] it was 9.1e+07 M⁻¹. In addition, the “fold decrease in binding against GPIb-290/2V-Ig” value in [10] was roughly 3 fold.

B7: GPIbα fusion protein variant 3V (G233V K237V M239V) (Fc fusion, not shown: large carriers)
chain: B1 chain with G233V, K237V, M239V
In the case of B7, the Ka stood at 1.7e+09 M⁻¹ in assay [3] and 1.5e+09 M⁻¹ in assay [4].

B8: GPIbα-IgG1Fc fusion protein with the M239V (1V) substitution (Fc fusion)
chain: B1 chain with M239V
modifications: tyrosines 276, 278, 279 can be sulfated; sulfation state not stated
notes: also called GP Ibα-Ig239V; not shown: IgG1 Fc
Consider B8, for which the Ka in assay [3] amounted to 7.7e+07 M⁻¹.

B9: GPIbα fusion protein variant 3V/C65S (Fc fusion, not shown: large carriers)
chain: B1 chain with C65S, G233V, K237V, M239V
notes: also called 3V/C-S
For the molecule B9, the results for the Ka in assay [3] and in assay [4] were 1.7e+09 M⁻¹ and 1.5e+09 M⁻¹, respectively.

B10: GPIbα-IgG1Fc fusion protein 2V (G233V M239V), fully sulfated isoform (Fc fusion)
chain: B1 chain with G233V, M239V
modifications: sulfotyrosine at 276, 278 and 279 (fully sulfated: sulfation state 6 per dimer)
notes: also called 2V 6 sulfated; GP Ib-Ig2V fully sulfated isoform; not shown: IgG1 Fc
On to B10, for which the “fold higher binding affinity than the unsulfated isoform” value in [5] is roughly 80 fold. In addition, the Kd in [6] is 4 nM; in assay [7] it was 3.4 to 15 nM.

(Values after patent US20110039780A1 (Pfizer, published 2011).)
